According to patent US20070009989A1, “Synthetic heparanase molecules and uses thereof” (priority 2003, published 2007):

How the values were obtained:
[1] = Heparanase enzymatic activity of constructs transiently expressed in COS-7 cells (radiometric or fluorimetric assay); format: biochemical; details: for enzymatic activity: extracted by heparin affinity chromatography; for stability of the construct (conclusion from expression level): expression barely detectable by Western blot
Procedure: Cells were grown in Dulbecco's MEM (Gibco BRL, Gaithersburg, Md.). All constructs were cloned into the eukaryotic expression plasmid pcDNA3 (Invitrogen). A vector encoding the reporter gene β-lactamase (BLA) was co-transfected in order to check transfection efficiency of each construct. […] Transient transfection of COS7 cells was obtained using the fuGENE 6 Transfection Reagent (Roche, Basel, Switzerland) according to manufacturer's instructions. 24 hours after transfection, efficiency was assessed by fluorimetric detection of BLA-positive cells. 96 hours after transfection, cells were harvested and resuspended in lysis buffer (50 mM Tris-HCl pH 7.5, 150 mM NaCl, 0.5% Triton) containing Complete protease inhibitor cocktail (Roche). The lysis was carried out on ice for 30 minutes. After centrifugation at 14000 rpm for 30 minutes, the heparanase containing supernatants were recovered and partially purified as outlined below.
Heparanase constructs were expressed in COS-7 cells, which are devoid of endogenous heparanse activity, by transient transfection. Heparanase was extracted from cell lysates by heparin affinity chromatography and quantified on Western blots. In parallel, heparanase enzymatic activity was determined with either the radiometric or fluorimetric assay (FIG. 5). From Western blot analysis, we concluded that wt heparanase as well as the single chain constructs GS3 and hyaluro are efficiently expressed and processed, whereas constructs 106 and GS4 are expressed but not processed. Expression levels of constructs 109 and GS6 were extremely low and barely detectable by Western blot analysis. […] Since GS3 and hyaluro are active but are processed despite the changes that were introduced in the cleavage sites we can not draw any conclusion with respect to the intrinsic activity of the precursors. We therefore proceeded with the expression in cells that are devoid of the enzyme(s) responsible for heparanase processing.
(§1) Cell lysates from COS7 or Sf9 insect cells were passed through 500 μl Heparin Sepharose CL-6B (Amersham, Piscataway, N.J.) by gravity. The column was washed with 2 ml of lysis buffer, then with 2 ml of 50 mM Tris-HCl pH 7.5, 500 mM NaCl, and heparanase was eluted with 2 ml of 50 mM Tris-HCl pH 7.5, 1 M NaCl and concentrated about 5 fold with a Biomax-30K centrifugal concentrator (Millipore, Bedford, Mass.). 10% glycerol was added and the protein was stored in aliquots at −80° C. Protein concentration was determined using the BIO-RAD Protein Assay.
(§2) This assay is based on the degradation of FITC-HS monitored by HPLC size exclusion chromatography. 8 μl of purified heparanase was incubated with 5 μL of FITC-HS in a 50 μl of 50 mM MES pH 6, 10% glycerol (heparanase activity buffer, HAB). The reaction mixture was incubated at room temperature for a defined period and the reaction was stopped by the addition of 50 μg of heparin. The mixture was then filtered using Ultrafree-MC centrifugal filter Devices (Millipore). 20 μl were injected on a Superdex 75™ (Pharmacia Biotech) column equilibrated in buffer 50 mM Hepes pH 7.5 150 mM Na2SO4 and connected to a Merck-Hitachi HPLC system. Fluorescent heparan sulfate degradation products were detected by an L-7485 fluorescence detector. Heparanase activity was assessed by monitoring the increase in lower molecular weight heparan sulfate species compared with the intact FITC-HS and quantified by peak area integration.
This assay is based on the degradation of tritiated heparan sulfate immobilized on microplate. Each well of the Reacti-Bind Streptavidin High Binding Capacity Coated Plates was pre-treated according to manufacturer's instructions. Initially, different amounts of each fraction of tritiated, biotinylated heparan sulfate obtained after PD-10 desalting column were added to each well (in duplicate) in PBS to a final volume of 100 μl. […]

[2] = Heparanase enzymatic activity of constructs expressed in Sf9 insect cells (fluorimetric assay); format: biochemical; details: for pH and ionic strength dependence of the enzymatic activity: compared with wild type enzyme from COS-7 cells or HCT-116 cells; for enzymatic activity of the unprocessed purified protein: expressed in Sf9 cells, compared with correctly processed wild type enzyme from COS-7 cells
Procedure: Recombinant baculoviruses containing the heparanase constructs were generated using the Bac to Bac expression system (Invitrogen). Recombinant baculoviruses were used to infect Sf9 insect cells (50×10^6 cells per T-175 flask) grown in Grace's insect medium with 10% FBS. Cells were collected 48 h after infection, and centrifuged at 500 g for 5 minutes. Cell lysates were prepared as above, except the lysis buffer contained 500 mM NaCl instead of the 150 mM used for COS7, which improved protein quantity in the soluble fraction.
The proteins were expressed in Sf9 cells and purified by heparin affinity chromatography.
as §1, §2

| Molecule | enzymatic activity [1] | pH and ionic strength dependence of the enzymatic activity [2] | enzymatic activity of the unprocessed purified protein [2] | stability of the construct (conclusion from expression level) [1] |
| --- | --- | --- | --- | --- |
| GS3: single chain heparanase, subunits linked via (GS)3 glycine-serine spacer, protein SEQ ID NO:21 (protein, hep GS3) MLLRSKPALPPPLMLLLLGPLGPLSPGALPRPAQAQDVVDLDFFTQEPLHLVSPSFLSVTIDANLATDPRFLILLGSPKLRTLARGLSPAYLRFGGTKTDFLIFDPKKEGSGSGSKKFKNSTYSRSSVDVLYTFANCSGLDLIFGLNALLRTADLQWNSSNAQLLLDYCSSKGYNISWELGNEPNSFLKKADIFINGSQLGEDFIQLHKLLRKSTFKNAKLYGPDVGQPRRKTAKMLKSFLKAGGEVIDSVTWHHYYLNGRTATREDFLNPDVLDIFISSVQKVFQVVESTRPGKKVWLGETSSAYGGGAPLLSDTFAAGFMWLDKLGLSARMGIEVVMRQVFFGAGNYHLVDENFDPLPDYWLSLLFKKLVGTKVLMASVQGSKRRKLRVYLHCTNTDNPRYKEGDLTLYAINLHNVTKYLRLPYPFSNKQVDKYLLRPLGPHGLLSKSVQLNGLTLKMVDDQTLPPLMEKPLRPGSSLGLPAFSYSFFVIRNAKVAACI | showed enzymatic activity | undistinguishable from the wild type recombinant enzyme | highly active | – |
| 106: single chain heparanase linking the 8 and 50 kDa subunits directly, protein SEQ ID NO:17 (protein, hep 106) MLLRSKPALPPPLMLLLLGPLGPLSPGALPRPAQAQDVVDLDFFTQEPLHLVSPSFLSVTIDANLATDPRFLILLGSPKLRTLARGLSPAYLRFGGTKTDFLIFDPKKFKNSTYSRSSVDVLYTFANCSGLDLIFGLNALLRTADLQWNSSNAQLLLDYCSSKGYNISWELGNEPNSFLKKADIFINGSQLGEDFIQLHKLLRKSTFKNAKLYGPDVGQPRRKTAKMLKSFLKAGGEVIDSVTWHHYYLNGRTATREDFLNPDVLDIFISSVQKVFQVVESTRPGKKVWLGETSSAYGGGAPLLSDTFAAGFMWLDKLGLSARMGIEVVMRQVFFGAGNYHLVDENFDPLPDYWLSLLFKKLVGTKVLMASVQGSKRRKLRVYLHCTNTDNPRYKEGDLTLYAINLHNVTKYLRLPYPFSNKQVDKYLLRPLGPHGLLSKSVQLNGLTLKMVDDQTLPPLMEKPLRPGSSLGLPAFSYSFFVIRNAKVAACI | inactive | – | – | – |
| hyaluro: single chain heparanase with grafted loop region from hyaluronidase, protein SEQ ID NO:27 (protein, hep Hya1) MLLRSKPALPPPLMLLLLGPLGPLSPGALPRPAQAQDVVDLDFFTQEPLHLVSPSFLSVTIDANLATDPRFLILLGSPKLRTLARGLSPAYLRFGGTKTDFLIFDPKKESTFEERSYWAFKDKTPEWPYQEQLLLREHYQKKFKNSTYSRSSVDVLYTFANCSGLDLIFGLNALLRTADLQWNSSNAQLLLDYCSSKGYNISWELGNEPNSFLKKADIFINGSQLGEDFIQLHKLLRKSTFKNAKLYGPDVGQPRRKTAKMLKSFLKAGGEVIDSVTWHHYYLNGRTATREDFLNPDVLDIFISSVQKVFQVVESTRPGKKVWLGETSSAYGGGAPLLSDTFAAGFMWLDKLGLSARMGIEVVMRQVFFGAGNYHLVDENFDPLPDYWLSLLFKKLVGTKVLMASVQGSKRRKLRVYLHCTNTDNPRYKEGDLTLYAINLHNVTKYLRLPYPFSNKQVDKYLLRPLGPHGLLSKSVQLNGLTLKMVDDQTLPPLMEKPLRPGSSLGLPAFSYSFFVIRNAKVAACI | showed enzymatic activity | undistinguishable from the wild type recombinant enzyme | highly active | – |
| 109: single chain heparanase linking the 8 and 50 kDa subunits directly, protein SEQ ID NO:20 (protein, hep 109) MLLRSKPALPPPLMLLLLGPLGPLSPGALPRPAQAQDVVDLDFFTQEPLHLVSPSFLSVTIDANLATDPRFLILLGSPKLRTLARGLSPAYLRFGGTKTDFLIFDPKKEKKFKNSTYSRSSVDVLYTFANCSGLDLIFGLNALLRTADLQWNSSNAQLLLDYCSSKGYNISWELGNEPNSFLKKADIFINGSQLGEDFIQLHKLLRKSTFKNAKLYGPDVGQPRRKTAKMLKSFLKAGGEVIDSVTWHHYYLNGRTATREDFLNPDVLDIFISSVQKVFQVVESTRPGKKVWLGETSSAYGGGAPLLSDTFAAGFMWLDKLGLSARMGIEVVMRQVFFGAGNYHLVDENFDPLPDYWLSLLFKKLVGTKVLMASVQGSKRRKLRVYLHCTNTDNPRYKEGDLTLYAINLHNVTKYLRLPYPFSNKQVDKYLLRPLGPHGLLSKSVQLNGLTLKMVDDQTLPPLMEKPLRPGSSLGLPAFSYSFFVIRNAKVAACI | – | – | – | probably unstable |
| GS6: single chain heparanase, subunits linked via (GS)6 spacer, protein SEQ ID NO:26 (protein, hep GS-A6) MLLRSKPALPPPLMLLLLGPLGPLSPGALPRPAQAQDVVDLDFFTQEPLHLVSPSFLSVTIDANLATDPRFLILLGSPKLRTLARGLSPAYLRFGGTKTDFLIFDPKKEGSGSGSGSGSGSKKFKNSTYSRSSVDVLYTFANCSGLDLIFGLNALLRTADLQWNSSNAQLLLDYCSSKGYNISWELGNEPNSFLKKADIFINGSQLGEDFIQLHKLLRKSTFKNAKLYGPDVGQPRRKTAKMLKSFLKAGGEVIDSVTWHHYYLNGRTATREDFLNPDVLDIFISSVQKVFQVVESTRPGKKVWLGETSSAYGGGAPLLSDTFAAGFMWLDKLGLSARMGIEVVMRQVFFGAGNYHLVDENFDPLPDYWLSLLFKKLVGTKVLMASVQGSKRRKLRVYLHCTNTDNPRYKEGDLTLYAINLHNVTKYLRLPYPFSNKQVDKYLLRPLGPHGLLSKSVQLNGLTLKMVDDQTLPPLMEKPLRPGSSLGLPAFSYSFFVIRNAKVAACI | – | – | – | probably unstable |
| GS4: single chain heparanase, W118-(GS)4-E143 spacer, protein SEQ ID NO:25 (protein, hep GS-A4) MLLRSKPALPPPLMLLLLGPLGPLSPGALPRPAQAQDVVDLDFFTQEPLHLVSPSFLSVTIDANLATDPRFLILLGSPKLRTLARGLSPAYLRFGGTKTDFLIFDPKKESTFEERSYWGSGAGSGAEWPYQEQLLLREHYQKKFKNSTYSRSSVDVLYTFANCSGLDLIFGLNALLRTADLQWNSSNAQLLLDYCSSKGYNISWELGNEPNSFLKKADIFINGSQLGEDFIQLHKLLRKSTFKNAKLYGPDVGQPRRKTAKMLKSFLKAGGEVIDSVTWHHYYLNGRTATREDFLNPDVLDIFISSVQKVFQVVESTRPGKKVWLGETSSAYGGGAPLLSDTFAAGFMWLDKLGLSARMGIEVVMRQVFFGAGNYHLVDENFDPLPDYWLSLLFKKLVGTKVLMASVQGSKRRKLRVYLHCTNTDNPRYKEGDLTLYAINLHNVTKYLRLPYPFSNKQVDKYLLRPLGPHGLLSKSVQLNGLTLKMVDDQTLPPLMEKPLRPGSSLGLPAFSYSFFVIRNAKVAACI | inactive | – | – | – |
